The target of this test is YPet-Mona. As to the kind of experiment: flow cytometry of E. coli displaying the construct, 50 nM YPet-Mona; 30 minutes of expression; reference CPX display. A general note: Flow cytometry measures light scatter and fluorescence of single cells or particles in a stream.

Our source for the fold improved display level compared to CPX values is patent publication US20160010082A1.

Sequence of YPet-Mona (O89100 263-322): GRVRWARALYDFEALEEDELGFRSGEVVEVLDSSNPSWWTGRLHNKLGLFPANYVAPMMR

B1: eCPX displaying the P2 peptide at the C-terminus (protein)
chain: GQSGQGGQSGQSGDYNKNQYYGITAGPAYRINDWASIYGVVGVGYGKFQTTEYPTYKHDTSDYGFSYGAGLQFNPMENVALDFSYEQSRIRSVDVGTWILSVGYRFGSKSRRATSTVTGGYAQSDAQGQMNKMGGFNLKYRYEEDNSPLGVIGSFTYTEKSRTASGGQSGQPAPSIDRSTKPPL
As for B1, the fold improved display level compared to CPX was 9 fold.
